From US20100310640A1

T1: HLA-DR DRB1*0404 (human)
T1 chain 1: not shown
T1 chain 2: not shown

T2: HLA-DR DRB1*1201 (human)
T2 chain 1: not shown
T2 chain 2: not shown

T3: HLA-DR DRB1*1302 (human)
T3 chain 1: not shown
T3 chain 2: not shown

T4: HLA-DR DRB4*0101 (human)
T4 chain 1: not shown
T4 chain 2: not shown

T5: HLA-DR DRB1*0101 (human)
T5 chain 1: not shown
T5 chain 2: not shown

T6: HLA-DR DRB1*0301 (human)
T6 chain 1: not shown
T6 chain 2: not shown

T7: HLA-DR DRB1*0401 (human)
T7 chain 1: not shown
T7 chain 2: not shown

T8: HLA-DR DRB1*0701 (human)
T8 chain 1: not shown
T8 chain 2: not shown

T9: HLA-DR DRB5*0101 (human)
T9 chain 1: not shown
T9 chain 2: not shown

T10: HLA-DR DRB1*0405 (human)
T10 chain 1: not shown
T10 chain 2: not shown

T11: HLA-DR DRB1*1101 (human)
T11 chain 1: not shown
T11 chain 2: not shown

T12: HLA-DR DRB1*0802 (human)
T12 chain 1: not shown
T12 chain 2: not shown


How the values were obtained:
Details in all cases: remark: other sources report otherwise
HLA-DR DRB1*0404 (human) [1] = molecular target: T1, HLA-DR DRB1*0404 (human); assay: radioligand inhibition, purified HLA-DR
HLA-DR DRB1*1201 (human) = molecular target: T2, HLA-DR DRB1*1201 (human); assay: radioligand inhibition, purified HLA-DR
HLA-DR DRB1*1302 (human) [2] = molecular target: T3, HLA-DR DRB1*1302 (human); assay: radioligand inhibition, purified HLA-DR
HLA-DR DRB4*0101 (human) [3] = molecular target: T4, HLA-DR DRB4*0101 (human); assay: radioligand inhibition, purified HLA-DR
HLA-DR DRB1*0101 (human) [4] = molecular target: T5, HLA-DR DRB1*0101 (human); assay: radioligand inhibition, purified HLA-DR
HLA-DR DRB1*0301 (human) = molecular target: T6, HLA-DR DRB1*0301 (human); assay: radioligand inhibition, purified HLA-DR
HLA-DR DRB1*0401 (human) [5] = molecular target: T7, HLA-DR DRB1*0401 (human); assay: radioligand inhibition, purified HLA-DR
HLA-DR DRB1*0701 (human) [6] = molecular target: T8, HLA-DR DRB1*0701 (human); assay: radioligand inhibition, purified HLA-DR
HLA-DR DRB5*0101 (human) [7] = molecular target: T9, HLA-DR DRB5*0101 (human); assay: radioligand inhibition, purified HLA-DR
HLA-DR DRB1*0101 (human) [8] = molecular target: T5, HLA-DR DRB1*0101 (human); assay: radiolabeled-peptide inhibition, purified HLA-DR
HLA-DR DRB1*0405 (human) = molecular target: T10, HLA-DR DRB1*0405 (human); assay: radiolabeled-peptide inhibition, purified HLA-DR
HLA-DR DRB1*1302 (human) [9] = molecular target: T3, HLA-DR DRB1*1302 (human); assay: radiolabeled-peptide inhibition, purified HLA-DR
HLA-DR DRB4*0101 (human) [10] = molecular target: T4, HLA-DR DRB4*0101 (human); assay: radiolabeled-peptide inhibition, purified HLA-DR
HLA-DR DRB5*0101 (human) [11] = molecular target: T9, HLA-DR DRB5*0101 (human); assay: radiolabeled-peptide inhibition, purified HLA-DR
HLA-DR DRB1*0401 (human) [12] = molecular target: T7, HLA-DR DRB1*0401 (human); assay: radiolabeled-peptide inhibition, purified HLA-DR
HLA-DR DRB1*1101 (human) [13] = molecular target: T11, HLA-DR DRB1*1101 (human); assay: radiolabeled-peptide inhibition, purified HLA-DR
HLA-DR DRB1*0802 (human) = molecular target: T12, HLA-DR DRB1*0802 (human); assay: radioligand inhibition, purified HLA-DR
HLA-DR DRB1*0404 (human) [14] = molecular target: T1, HLA-DR DRB1*0404 (human); assay: radiolabeled-peptide inhibition, purified HLA-DR
HLA-DR DRB1*0701 (human) [15] = molecular target: T8, HLA-DR DRB1*0701 (human); assay: radiolabeled-peptide inhibition, purified HLA-DR
HLA-DR DRB1*1101 (human) [16] = molecular target: T11, HLA-DR DRB1*1101 (human); assay: radioligand inhibition, purified HLA-DR

IC50 (HLA-DR DRB1*1302 (human) [2])	IC50 (HLA-DR DRB4*0101 (human) [3])	IC50 (HLA-DR DRB1*0101 (human) [4])	IC50 (HLA-DR DRB1*0301 (human))	IC50 (HLA-DR DRB1*0405 (human))	IC50 (HLA-DR DRB1*1302 (human) [9])	IC50 (HLA-DR DRB4*0101 (human) [10])	IC50 (HLA-DR DRB5*0101 (human) [11])	IC50 (HLA-DR DRB1*0401 (human) [12])	IC50 (HLA-DR DRB1*0404 (human) [14])	Binder	also measured
35 nM	53 nM									TAKLTIESTPFNVAE [CEA.33 peptide 9019.0106]	IC50 (HLA-DR DRB1*0404 (human) [1]): 41 nM; IC50 (HLA-DR DRB1*1201 (human)): 2310 nM
879 nM	33 nM	1920 nM	64 nM							KLCIYTDNSIRPEEL [Cyclin D1.123]	IC50 (HLA-DR DRB1*0401 (human) [5]): 90 nM; IC50 (HLA-DR DRB1*0701 (human) [6]): 1100 nM; IC50 (HLA-DR DRB5*0101 (human) [7]): 4620 nM
				596 nM	402 nM	5.06 µM	308 nM			AYVMAGVGSPYVSRL [9019.0077]	IC50 (HLA-DR DRB1*0101 (human) [8]): 92 nM
1670 nM	2510 nM	4030 nM	31 nM							APTIRGDPECHLFYN [Peptide 9019.0022]	IC50 (HLA-DR DRB1*0401 (human) [5]): 1640 nM; IC50 (HLA-DR DRB1*0701 (human) [6]): 16800 nM; IC50 (HLA-DR DRB1*1201 (human)): 16900 nM
				1900 nM			5420 nM	2760 nM		SDVWSYGVTVWELMT [9019.0089]	IC50 (HLA-DR DRB1*1101 (human) [13]): 2640 nM
55 nM	91 nM	6.8 nM								PPSMVAAGSVVAAVQ [Cyclin D1.109]	IC50 (HLA-DR DRB1*0802 (human)): 1400 nM
							7040 nM	1020 nM	4550 nM	SQFLRGQECVEECRV [9019.0062]	IC50 (HLA-DR DRB1*0101 (human) [8]): 462 nM; IC50 (HLA-DR DRB1*0701 (human) [15]): 540 nM
					2230 nM	3 µM	130 nM	2650 nM	867 nM	CMQIAKGMSYLEDVR [9019.0083]	IC50 (HLA-DR DRB1*0701 (human) [15]): 116 nM
			8620 nM							ELAVFREKVTEQHRQ [Peptide 9019.0018]	
				8.5 nM	751 nM	0.27 µM	67 nM	243 nM		ITGYLYISAWPDSLP [9019.0050]	IC50 (HLA-DR DRB1*0101 (human) [8]): 96 nM; IC50 (HLA-DR DRB1*1101 (human) [13]): 2570 nM
				447 nM	443 nM	3.11 µM		420 nM	3000 nM	ISAVVGILLVVVLGV [9019.0067]	IC50 (HLA-DR DRB1*0701 (human) [15]): 941 nM
						7.81 µM	1500 nM	3860 nM	125 nM	KIPVAIKVLRENTSP [1622.03]	IC50 (HLA-DR DRB1*0101 (human) [8]): 1500 nM; IC50 (HLA-DR DRB1*1101 (human) [13]): 4110 nM
280 nM			18 nM							LQRYSEDPTVPLPSE [Peptide 9019.0099]	IC50 (HLA-DR DRB1*0404 (human) [1]): 13100 nM; IC50 (HLA-DR DRB1*1101 (human) [16]): 94 nM
4760 nM	4030 nM	8210 nM	151 nM							EALLESSLRQAQQNM [Cyclin D1.252]	IC50 (HLA-DR DRB1*0401 (human) [5]): 605 nM; IC50 (HLA-DR DRB1*0404 (human) [1]): 1020 nM; IC50 (HLA-DR DRB1*1101 (human) [16]): 756 nM
		69 nM								LLTFWNPPTTAKLTI [CEA.24 peptide 9019.0105]	IC50 (HLA-DR DRB1*0404 (human) [1]): 52 nM; IC50 (HLA-DR DRB1*0701 (human) [6]): 3.7 nM; IC50 (HLA-DR DRB1*1101 (human) [16]): 52 nM; IC50 (HLA-DR DRB1*1201 (human)): 3000 nM; IC50 (HLA-DR DRB5*0101 (human) [7]): 31 nM
				376 nM	478 nM	11 µM		635 nM	3530 nM	ILLVVVLGVVFGILI [9019.0068]	IC50 (HLA-DR DRB1*0701 (human) [15]): 780 nM; IC50 (HLA-DR DRB1*1101 (human) [13]): 2460 nM
